Experimental data published in paper PMC7570090, “Label-Free Monitoring of Histone Acetylation Using Aptamer-Functionalized Field-Effect Transistor and Quartz Crystal Microbalance Sensors”.

Legend:
histone H4 = histone H4 (human, UniProt P62805 1-103); assay: FET and QCM; 140 mM KCl; 44-2650 nM H4; FET: 1 mM phosphate, 140 mM KCl, pH 7.4, 25 C; aptamer/sulfobetaine SAM on gold annealed at 100 C and slowly cooled; QCM 30 MHz, 25 C (buffer not separately stated); details: protein: commercial; G-quadruplex with K+
histone H3.1 = histone H3.1 (human, UniProt P68431 1-136); assay: FET and QCM; 140 mM KCl; 33-1950 nM H3; FET: 1 mM phosphate, 140 mM KCl, pH 7.4, 25 C; aptamer/sulfobetaine SAM on gold annealed at 100 C and slowly cooled; QCM 30 MHz, 25 C (buffer not separately sta)

B1: anti-histone H4 aptamer (structured_DNA)
DNA: TTTTGGTGGGGTTCCCGGGAGGGCGGCTACGGGTTCCGTAATCAGATTTGTGT
modifications: 5' 6-mercaptohexyl linker
**Q.** Does B1 bind (histone H4)?
**A.** Result: binds

B2: anti-histone H3 aptamer (structured_DNA)
DNA: TTTGAGTGTGGTTCCCGGGAGGGCGCCTACGGGTCCCGTATTCGGATTTGTGC
modifications: 5' 6-mercaptohexyl linker
**Q.** Does B2 bind (histone H3.1)?
**A.** Result: binds
